Numbering of substitutions follows the chain as printed. Names and notes keep the numbering of the source. Values joined by “and” are separate entries in the source; they are usually repeats but may differ in a detail not shown here. Equal values may be shown once.
Experiments:
[1] = target: T1, Fu-bc subunit protein (Dengue virus (DENV-2-like E domain II), …); assay: SPR
T1 chain: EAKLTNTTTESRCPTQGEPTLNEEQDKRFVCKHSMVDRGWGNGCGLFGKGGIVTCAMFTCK

[2] = target: T1, Fu-bc subunit protein; assay: BLI
[3] = target: T2, Fu-bc fused to the GAL4 activation domain (pGADT7) (Dengue virus (DENV-2-like E domain II), …); assay: two-hybrid
T2 chain: T1 chain

B1: scFv-Mutant9 (S227W) (scFv, V domains shown)
VH: EVKLVESGGGLVLPGGSLRLSCATSGFTFTDYYMTWVRQPPGKALEWLGFIGNKANDYTTEYSASVKGRFTISRDDSQSILYLQMSTLRAEDRATYYCATVYGNYPYFDVWGAGTTVAVSS
VL: QIVLTQSPAIMSASPGEKVTMTCSASSSVSYMHWYQQKSGTSPKIWIYESSKLASGVPVRFSGSGSGTSYSLTISSMEAEDVATYYCQQWSWHPHPLTFGAGTKLELK
binding result [1]: binds

B2: scFv-Mutant8 (S227L) (scFv, V domains shown)
VH: B1 VH
VL: B1 VL with W92L
binding result [1]: binds

B3: scFv-mutant15 (D31L, Y105W, S227W) (scFv, V domains shown)
VH: B1 VH with D31L, Y105W
VL: B1 VL
Kd [2]: 21 ± 11 nM
Kd [1]: 24 nM and 20 to 52 nM

B4: scFv double mutant T30W, S227L (scFv, V domains shown)
VH: B1 VH with T30W
VL: B1 VL with W92L
binding result [1]: binds

B5: scFv-mutant16 fused to the GAL4 DNA-binding domain (pGBKT7) (scFv, V domains shown)
VH: B1 VH with T30W, Y33Q
VL: B1 VL
binding result [3]: binds

B6: scFv-mutant17 (Y33Q, G103T, S227L) (scFv, V domains shown)
VH: B1 VH with Y33Q, G103T
VL: B1 VL with W92L
Kd [2]: 31 ± 14 nM
Kd [1]: 27 ± 11 nM

B7: scFv-mutant16 (T30W, Y33Q, S227W) (scFv, V domains shown)
VH: B1 VH with T30W, Y33Q
VL: B1 VL
Kd [2]: 47 ± 19 nM
Kd [1]: 52 ± 17 nM

B8: scFv-mutant18 fused to the GAL4 DNA-binding domain (pGBKT7) (scFv, V domains shown)
VH: B1 VH with Y33Q, Y105W
VL: B1 VL with W92S, H95W
binding result [3]: binds

B9: scFv-mutant17 fused to the GAL4 DNA-binding domain (pGBKT7) (scFv, V domains shown)
VH: B1 VH with Y33Q, G103T
VL: B1 VL with W92L
binding result [3]: binds

B10: scFv-Mutant1 (T30W) (scFv, V domains shown)
VH: B1 VH with T30W
VL: B1 VL with W92S
binding result [1]: binds

B11: scFv single mutant D31L (scFv, V domains shown)
VH: B1 VH with D31L
VL: B1 VL with W92S
binding result [1]: binds

B12: scFv double mutant13 (Y33Q, G103T) (scFv, V domains shown)
VH: B1 VH with Y33Q, G103T
VL: B1 VL with W92S
fold change in affinity against the WT [1]: 45 fold

B13: scFv single mutant D31F (scFv, V domains shown)
VH: B1 VH with D31F
VL: B1 VL with W92S
binding result [1]: binds

B14: scFv-Mutant6 (G103T) (scFv, V domains shown)
VH: B1 VH with G103T
VL: B1 VL with W92S
binding result [1]: binds

B15: scFv-Mutant5 (Y33Q) (scFv, V domains shown)
VH: B1 VH with Y33Q
VL: B1 VL with W92S
Kd [1]: 302 ± 15 nM

B16: scFv double mutant12 (T30W, S227W) (scFv, V domains shown)
VH: B1 VH with T30W
VL: B1 VL
binding result [1]: binds

B17: scFv-mutant18 (Y33Q, Y105W, H230W) (scFv, V domains shown)
VH: B1 VH with Y33Q, Y105W
VL: B1 VL with W92S, H95W
Kd [2]: 310 ± 35 nM
fold change in affinity against the WT [1]: ~7 fold

B18: scFv-mutant15 fused to the GAL4 DNA-binding domain (pGBKT7) (scFv, V domains shown)
VH: B1 VH with D31L, Y105W
VL: B1 VL
binding result [3]: binds

B19: scFv-Mutant7 (Y105W) (scFv, V domains shown)
VH: B1 VH with Y105W
VL: B1 VL with W92S
binding result [1]: binds

Reference: article PMC8956951 (The Journal of Biological Chemistry, 2022)
